Measured values as given in the nanobody polyreactivity screen of Harvey et al. (2022).

Experiment: yeast display, Sf9 membrane polyspecificity reagent, FACS + sequencing; frameworks hold sequencing errors
Method in brief: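 Synthetic nanobody libraries on Saccharomyces cerevisiae BJ5465 were galactose-induced for 36–48 hours, stained 1 hour at 4 °C with 10% biotinylated, detergent-solubilized Sf9 membrane reagent and enriched on streptavidin microbeads. FACS then separated cells into low and high (top ~1%) gates by anti-HA (expression) and streptavidin (reagent binding) fluorescence. Genes were colony-PCR amplified, MiSeq 2 × 250 sequenced and CDR-length filtered. A clone's polyreactivity label is that of its gate of origin.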

With “QVQLVESGGGLVPAGGSLRLSCAASGSTFNGYPMGWYRQAPGKEREFVATITFSDGSTYYADSVKGRFTISRDNAKNTVYLQMNSLKPEDTAVYYCNVDSRIGYDYWGQGTQVTVSS” the “polyreactivity (PSR sort gate)” value was “low polyreactivity”.

For “QVQLVESGGGLVQAGGSLRLSCAASGFTFVSYAMGWSRQAPGKERELVAVISKSGSRTSYAESVKGRFTISRDNAKNTVYLQMNSLKPEDTAVYYCAVYYTRIGPRYDYWGQGTQVTVSS”, the “polyreactivity (PSR sort gate)” value was “high polyreactivity”.

In the case of “QVQLVESGGGLVQAGGSLRLSCAASGFTFKSYTMGSYRQAPGKERELVAAISRRDGSTYYADSVKGRFTISRDNAKNTVYLQMNSLKPEDTAVYYCAKVWYGDRNIDRYDYWGQGTQVTVSS”, the “polyreactivity (PSR sort gate)” value is reported as “high polyreactivity”.

For “QVQLVESGGGLVQAGGSLRLSCAASGSTFFPNGMGWYRQAPGKERELVAAITQDGGSTYYADSVKGRFTISRDKAKNTVYLQMNSLKPEDTAVYYCAASAGPYYEYGYWGQGTQVTVSS”, the “polyreactivity (PSR sort gate)” value was “low polyreactivity”.

With “QVQLVESGAGLVQAGGSLRLSCAASGSIFRKYGMGLYRQAPGKDRELVATITSSGGSTYYADSVKGRFRISRDNAKNTVYVQMNSLIPEDTAVYYCAARWTYSFHWFSRYDYWGPGTQVTVSS” the “polyreactivity (PSR sort gate)” value was “high polyreactivity”.

With “QVQLVESGGGLVQAGGSLRLSCAASGSTFLPNAMGWYRQAPGKERELVATITFDGGSTYYADSVKGRFTISRDNAKNTVYLQMNSLKPEDTAVYYCNTVELYWRGYDYWGQGTQVTVSS” the “polyreactivity (PSR sort gate)” value was “high polyreactivity”.

In the case of “QVQLVESGGGLVQAGGSLRLSCAASGRIFDYYAMGWYRQAPGKERELVAAINRGGNTYYADSVKGRFTISRDNAKNTVYLQMNSLKPEETSVYYCNAQWYYLRYRYDYWGQGTQVTVSS”, the “polyreactivity (PSR sort gate)” value is reported as “high polyreactivity”.

With “QVQHVESGGGLVQAGGSLRLSCAASGRIFAVNTMGWYRPAPVKERELVAAITSTGRTYYADSVKGRFTISRDNAKNTVYLQMNSLKPEDSAVYYCAADFRYPYAHLPYGYWGQGTQVTVSS” the “polyreactivity (PSR sort gate)” value was “high polyreactivity”.

With “QVHLVESGGGLVQAGGSLRLSCAASGSTSDNTMGWYRQAPGKERELVAAISQRGVSTYYADSVKGRFTISRDNAKNTVYLQMNSLKPEDTAVYYCNALLSAKFDYWGQGTQVTVSS” the “polyreactivity (PSR sort gate)” value was “low polyreactivity”.

With “QLQLVESGGGLVQAGGSLRLSCAASGSTFATYAMGWYRQAPGKESELVAVITRGGSTYYADSVKGRFTISRDNAKNTVYLQMNSLKPEDTAVYYCAAKAYTYYARIGFDYWGQGTQVTVSS” the “polyreactivity (PSR sort gate)” value was “high polyreactivity”.

With “QVQLVESGGGLVQAGGSLRLSCAASGSTFRYYVMGWSRQAPGKEMELVAGISYRGGTTYYADSVKGRFTISRDNAKITVYLQMNSMKPEDTAVYYCNAGYTLYHYYSWYAFGYWGQGTQGTVSS” the “polyreactivity (PSR sort gate)” value was “low polyreactivity”.

For “QVQLVETGGGLVQAGGSLRLSCAASGRIFRNNAMGWYRQAPGKERELVAGISSGGSTYYADSVKGRFTMSRDNAKKTVYLQMNNLKPEDTAVYFFAVVGSAYQSRYDYWGQGNQVTVSS”, the “polyreactivity (PSR sort gate)” value was “high polyreactivity”.

In the case of “QVQLEESGGGLVQAGGSRRLSCAASGITFPGYAMGWYRQAPGKERELVAGITYRGGRTYYADSVKGRFTISRDNAKTTVYLQMTSLNTEATAVYYCNADYWSTGGSYSFDYWGQGTQVTVSS”, the “polyreactivity (PSR sort gate)” value is reported as “low polyreactivity”.

With “QVQLVETGRGLVQAGGSLRLSCAASGGTFVVYSMGWYRQAPGTERELVAAITWIGDSTYYADSVKRRFTISRDNAKNTVYVQMNSLNPEDTAVYYCNKAKLYLVGRARFQTNYGLYDFWGQVTQVTVSS” the “polyreactivity (PSR sort gate)” value was “low polyreactivity”.

With “QVQLVESGGGLVQAGGSLRLSCAASGFSFQLYPMGWYRQAPWKERELVSAISQSGDSTYYADSVKGRFTISRDNAKNTVYLQMNSQKPEDNAVYYFNAVNDGVVWSYPFDFDYWGQGTQVTVSS” the “polyreactivity (PSR sort gate)” value was “low polyreactivity”.

With “QVQLVESGGGLVRAGGSLRLSWAASGFTFTSYAMGWYRQAPGKERELVAAITVTGGRTYYADSVKGRFTISRDNAKNTVYLQMNSLKPEDTAVYYCATVFSLSSPYWKHYYWGQGTQVTVSS” the “polyreactivity (PSR sort gate)” value was “high polyreactivity”.

With “QVQLVESGGGLVQAGGSLRLSCAASGFIFADYMGWYRQAPGKERELDASISSTGSSTYADSVKGRFTISRDNAKNTVYLQMNSLKPEDTAVYYCAATGVWYSWYEYASEYDYWGQGTQVTVSS” the “polyreactivity (PSR sort gate)” value was “high polyreactivity”.
